Test results published in PMC7611853 (Nature cell biology, 2021).

B1: Cdc19^WT (wild-type pyruvate kinase Cdc19, strep-tagged, recombinant) (enzyme, S. cerevisiae, UniProt P00549 1-500, looked up)
chain: MSRLERLTSLNVVAGSDLRRTSIIGTIGPKTNNPETLVALRKAGLNIVRMNFSHGSYEYHKSVIDNARKSEELYPGRPLAIALDTKGPEIRTGTTTNDVDYPIPPNHEMIFTTDDKYAKACDDKIMYVDYKNITKVISAGRIIYVDDGVLSFQVLEVVDDKTLKVKALNAGKICSHKGVNLPGTDVDLPALSEKDKEDLRFGVKNGVHMVFASFIRTANDVLTIREVLGEQGKDVKIIVKIENQQGVNNFDEILKVTDGVMVARGDLGIEIPAPEVLAVQKKLIAKSNLAGKPVICATQMLESMTYNPRPTRAEVSDVGNAILDGADCVMLSGETAKGNYPINAVTTMAETAVIAEQAIAYLPNYDDMRNCTPKPTSTTETVAASAVAAVFEQKAKAIIVLSTSGTTPRLVSKYRPNCPIILVTRCPRAARFSHLYRGVFPFVFEKEPVSDWTDDVEARINFGIEKAKEFGILKKGDTYVSIQGFKAGAGHSNTLQVSTV
B2: Cdc19^ΔFBP (Cdc19 point-mutant T403E unable to bind FBP, strep-tagged, recombinant) (enzyme, S. cerevisiae, UniProt P00549 1-500, looked up)
chain: MSRLERLTSLNVVAGSDLRRTSIIGTIGPKTNNPETLVALRKAGLNIVRMNFSHGSYEYHKSVIDNARKSEELYPGRPLAIALDTKGPEIRTGTTTNDVDYPIPPNHEMIFTTDDKYAKACDDKIMYVDYKNITKVISAGRIIYVDDGVLSFQVLEVVDDKTLKVKALNAGKICSHKGVNLPGTDVDLPALSEKDKEDLRFGVKNGVHMVFASFIRTANDVLTIREVLGEQGKDVKIIVKIENQQGVNNFDEILKVTDGVMVARGDLGIEIPAPEVLAVQKKLIAKSNLAGKPVICATQMLESMTYNPRPTRAEVSDVGNAILDGADCVMLSGETAKGNYPINAVTTMAETAVIAEQAIAYLPNYDDMRNCTPKPTSTTETVAASAVAAVFEQKAKAIIVLSESGTTPRLVSKYRPNCPIILVTRCPRAARFSHLYRGVFPFVFEKEPVSDWTDDVEARINFGIEKAKEFGILKKGDTYVSIQGFKAGAGHSNTLQVSTV

Columns and labels:
[1] = target: the molecule itself; experiment: negative-stain TEM, circular dichroism and amyloid-dye
centrifugation = target: the molecule itself; experiment: centrifugation

| Protein | binding result [1] | binding result (centrifugation) |
| --- | --- | --- |
| B1 | binds |  |
| B2 |  | binds |
